From patent US20200157174A1 (DRAGONFLY THERAPEUTICS, published 2020)

Assays:
Test in all cases: ELISA on coated NKG2D-Fc;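 further: titrated NKG2D-binding domains on plate-bound human, mouse or cynomolgus NKG2D ectodomain–human IgG1 Fc fusions, detected with HRP anti-human kappa secondary and TMB, absorbance at 450 nm corrected at 540 nm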
[1] = target: T1, recombinant mouse NKG2D-Fc (mouse; human, UniProt O54709 90-232)
T1 construct: extracellular domain; also called mouse NKG2D-Fc fusion protein; Mouse NKG2D-Fc-biotin; not shown: human IgG1 Fc domain
T1 sequence (looked up): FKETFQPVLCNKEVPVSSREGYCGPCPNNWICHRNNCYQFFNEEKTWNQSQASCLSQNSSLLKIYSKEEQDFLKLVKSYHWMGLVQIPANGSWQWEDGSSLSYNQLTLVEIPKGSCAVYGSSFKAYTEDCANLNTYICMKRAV

[2] = target: T2, recombinant cynomolgus NKG2D-Fc (cynomolgus; human, UniProt P61252 73-216)
T2 construct: extracellular domain; also called cynomolgus NKG2D-Fc fusion protein; not shown: human IgG1 Fc domain
T2 sequence (looked up): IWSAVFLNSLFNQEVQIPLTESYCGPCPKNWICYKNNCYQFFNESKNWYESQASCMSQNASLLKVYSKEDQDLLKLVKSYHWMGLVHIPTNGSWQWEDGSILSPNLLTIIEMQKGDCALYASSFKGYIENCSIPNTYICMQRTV

[3] = target: T3, recombinant human NKG2D-Fc (human, UniProt P26718 73-216)
T3 construct: extracellular domain; also called human NKG2D-Fc fusion protein; NKG2D-Fc-biotin; not shown: human IgG1 Fc domain
T3 sequence (looked up): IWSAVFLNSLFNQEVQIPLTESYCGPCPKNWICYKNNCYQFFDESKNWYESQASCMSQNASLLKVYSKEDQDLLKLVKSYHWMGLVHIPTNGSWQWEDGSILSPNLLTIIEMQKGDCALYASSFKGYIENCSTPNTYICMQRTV

Measured: binding result

B1: ADI-27705 (antibody, V domains shown)
VH: QVQLQQWGAGLLKPSETLSLTCAVYGGSFSGYYWSWIRQPPGKGLEWIGEIDHSGSTNYNPSLKSRVTISVDTSKNQFSLKLSSVTAADTAVYYCARARGPWSFDPWGQGTLVTVSS
VL: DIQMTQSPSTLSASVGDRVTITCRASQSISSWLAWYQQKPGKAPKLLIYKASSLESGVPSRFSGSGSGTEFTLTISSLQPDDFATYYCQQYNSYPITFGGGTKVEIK
binds: [1] | [2] | [3]

B2: ADI-29403 (antibody, V domains shown)
VH: QVQLQQWGAGLLKPSETLSLTCAVYGGSFSGYYWSWIRQPPGKGLEWIGEIDHSGSTNYNPSLKSRVTISVDTSKNQFSLKLSSVTAADTAVYYCARARGPWSFDPWGQGTLVTVSS
VL: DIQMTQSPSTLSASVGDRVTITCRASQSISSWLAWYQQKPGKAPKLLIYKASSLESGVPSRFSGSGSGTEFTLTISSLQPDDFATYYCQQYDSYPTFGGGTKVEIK
binds: [1] | [2] | [3]

B3: ADI-29426 (antibody, V domains shown)
VH: QVQLQQWGAGLLKPSETLSLTCAVYGGSFSGYYWSWIRQPPGKGLEWIGEIDHSGSTNYNPSLKSRVTISVDTSKNQFSLKLSSVTAADTAVYYCARARGPWSFDPWGQGTLVTVSS
VL: DIQMTQSPSTLSASVGDRVTITCRASQSIGSWLAWYQQKPGKAPKLLIYKASSLESGVPSRFSGSGSGTEFTLTISSLQPDDFATYYCQQYHSFPTFGGGTKVEIK
binds: [1] | [2] | [3]

B4: ADI-29401 (antibody, V domains shown)
VH: QVQLQQWGAGLLKPSETLSLTCAVYGGSFSGYYWSWIRQPPGKGLEWIGEIDHSGSTNYNPSLKSRVTISVDTSKNQFSLKLSSVTAADTAVYYCARARGPWSFDPWGQGTLVTVSS
VL: DIQMTQSPSTLSASVGDRVTITCRASQSIGSWLAWYQQKPGKAPKLLIYKASSLESGVPSRFSGSGSGTEFTLTISSLQPDDFATYYCQQYDIYPTFGGGTKVEIK
binds: [1] | [2] | [3]

B5: ADI-29424 (antibody, V domains shown)
VH: QVQLQQWGAGLLKPSETLSLTCAVYGGSFSGYYWSWIRQPPGKGLEWIGEIDHSGSTNYNPSLKSRVTISVDTSKNQFSLKLSSVTAADTAVYYCARARGPWSFDPWGQGTLVTVSS
VL: DIQMTQSPSTLSASVGDRVTITCRASQSISSWLAWYQQKPGKAPKLLIYKASSLESGVPSRFSGSGSGTEFTLTISSLQPDDFATYYCQQYDSFITFGGGTKVEIK
binds: [1] | [2] | [3]

B6: ADI-29407 (antibody, V domains shown)
VH: QVQLQQWGAGLLKPSETLSLTCAVYGGSFSGYYWSWIRQPPGKGLEWIGEIDHSGSTNYNPSLKSRVTISVDTSKNQFSLKLSSVTAADTAVYYCARARGPWSFDPWGQGTLVTVSS
VL: DIQMTQSPSTLSASVGDRVTITCRASQSISSWLAWYQQKPGKAPKLLIYKASSLESGVPSRFSGSGSGTEFTLTISSLQPDDFATYYCQQYQSFPTFGGGTKVEIK
binds: [1] | [2] | [3]

B7: ADI-29447 (antibody, V domains shown)
VH: QVQLQQWGAGLLKPSETLSLTCAVYGGSFSGYYWSWIRQPPGKGLEWIGEIDHSGSTNYNPSLKSRVTISVDTSKNQFSLKLSSVTAADTAVYYCARARGPWSFDPWGQGTLVTVSS
VL: DIQMTQSPSTLSASVGDRVTITCRASQSISSWLAWYQQKPGKAPKLLIYKASSLESGVPSRFSGSGSGTEFTLTISSLQPDDFATYYCQQYDTFITFGGGTKVEIK
notes: also called F47
binds: [1] | [2] | [3]

B8: ADI-27743 (antibody, V domains shown)
VH: QVQLQQWGAGLLKPSETLSLTCAVYGGSFSGYYWSWIRQPPGKGLEWIGEIDHSGSTNYNPSLKSRVTISVDTSKNQFSLKLSSVTAADTAVYYCARARGPWSFDPWGQGTLVTVSS
VL: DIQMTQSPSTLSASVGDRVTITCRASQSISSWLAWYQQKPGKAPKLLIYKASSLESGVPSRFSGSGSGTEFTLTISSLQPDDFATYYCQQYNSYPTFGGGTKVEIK
binds: [1] | [2] | [3]

B9: ADI-29399 (antibody, V domains shown)
VH: QVQLQQWGAGLLKPSETLSLTCAVYGGSFSGYYWSWIRQPPGKGLEWIGEIDHSGSTNYNPSLKSRVTISVDTSKNQFSLKLSSVTAADTAVYYCARARGPWSFDPWGQGTLVTVSS
VL: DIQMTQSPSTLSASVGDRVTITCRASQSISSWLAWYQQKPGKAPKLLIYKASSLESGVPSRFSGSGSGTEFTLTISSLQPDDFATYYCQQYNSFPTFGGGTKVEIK
binds: [1] | [2] | [3]

B10: ADI-29419 (antibody, V domains shown)
VH: QVQLQQWGAGLLKPSETLSLTCAVYGGSFSGYYWSWIRQPPGKGLEWIGEIDHSGSTNYNPSLKSRVTISVDTSKNQFSLKLSSVTAADTAVYYCARARGPWSFDPWGQGTLVTVSS
VL: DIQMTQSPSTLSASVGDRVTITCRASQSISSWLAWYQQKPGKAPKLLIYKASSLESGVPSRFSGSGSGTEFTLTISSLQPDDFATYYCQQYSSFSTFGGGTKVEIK
binds: [1] | [2] | [3]

B11: ADI-27741 (antibody, V domains shown)
VH: QVQLQQWGAGLLKPSETLSLTCAVYGGSFSGYYWSWIRQPPGKGLEWIGEIDHSGSTNYNPSLKSRVTISVDTSKNQFSLKLSSVTAADTAVYYCARARGPWSFDPWGQGTLVTVSS
VL: DIQMTQSPSTLSASVGDRVTITCRASQSIGSWLAWYQQKPGKAPKLLIYKASSLESGVPSRFSGSGSGTEFTLTISSLQPDDFATYYCQQSNSYYTFGGGTKVEIK
binds: [1] | [2] | [3]

B12: ADI-27740 (antibody, V domains shown)
VH: QVQLQQWGAGLLKPSETLSLTCAVYGGSFSGYYWSWIRQPPGKGLEWIGEIDHSGSTNYNPSLKSRVTISVDTSKNQFSLKLSSVTAADTAVYYCARARGPWSFDPWGQGTLVTVSS
VL: DIQMTQSPSTLSASVGDRVTITCRASQSIGSWLAWYQQKPGKAPKLLIYKASSLESGVPSRFSGSGSGTEFTLTISSLQPDDFATYYCQQYHSFYTFGGGTKVEIK
notes: also called A40
binds: [1] | [2] | [3]

B13: ADI-29425 (antibody, V domains shown)
VH: QVQLQQWGAGLLKPSETLSLTCAVYGGSFSGYYWSWIRQPPGKGLEWIGEIDHSGSTNYNPSLKSRVTISVDTSKNQFSLKLSSVTAADTAVYYCARARGPWSFDPWGQGTLVTVSS
VL: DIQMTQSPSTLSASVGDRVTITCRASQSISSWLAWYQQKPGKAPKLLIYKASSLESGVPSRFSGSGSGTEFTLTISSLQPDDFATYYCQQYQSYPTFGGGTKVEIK
binds: [1] | [2] | [3]

B14: ADI-28226 (antibody, V domains shown)
VH: QVQLQQWGAGLLKPSETLSLTCAVYGGSFSGYYWSWIRQPPGKGLEWIGEIDHSGSTNYNPSLKSRVTISVDTSKNQFSLKLSSVTAADTAVYYCARARGPWSFDPWGQGTLVTVSS
VL: DIQMTQSPSTLSASVGDRVTITCRASQSISSWLAWYQQKPGKAPKLLIYKASSLESGVPSRFSGSGSGTEFTLTISSLQPDDFATYYCQQYGSFPITFGGGTKVEIK
notes: also called C26
binds: [1] | [2] | [3]

B15: ADI-29429 (antibody, V domains shown)
VH: QVQLQQWGAGLLKPSETLSLTCAVYGGSFSGYYWSWIRQPPGKGLEWIGEIDHSGSTNYNPSLKSRVTISVDTSKNQFSLKLSSVTAADTAVYYCARARGPWSFDPWGQGTLVTVSS
VL: DIQMTQSPSTLSASVGDRVTITCRASQSIGSWLAWYQQKPGKAPKLLIYKASSLESGVPSRFSGSGSGTEFTLTISSLQPDDFATYYCQQYELYSYTFGGGTKVEIK
binds: [1] | [2] | [3]

B16: ADI-29421 (antibody, V domains shown)
VH: QVQLQQWGAGLLKPSETLSLTCAVYGGSFSGYYWSWIRQPPGKGLEWIGEIDHSGSTNYNPSLKSRVTISVDTSKNQFSLKLSSVTAADTAVYYCARARGPWSFDPWGQGTLVTVSS
VL: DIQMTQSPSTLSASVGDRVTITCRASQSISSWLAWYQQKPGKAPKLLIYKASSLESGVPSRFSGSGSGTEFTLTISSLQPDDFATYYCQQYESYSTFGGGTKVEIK
binds: [1] | [2] | [3]

B17: ADI-29405 (antibody, V domains shown)
VH: QVQLQQWGAGLLKPSETLSLTCAVYGGSFSGYYWSWIRQPPGKGLEWIGEIDHSGSTNYNPSLKSRVTISVDTSKNQFSLKLSSVTAADTAVYYCARARGPWSFDPWGQGTLVTVSS
VL: DIQMTQSPSTLSASVGDRVTITCRASQSISSWLAWYQQKPGKAPKLLIYKASSLESGVPSRFSGSGSGTEFTLTISSLQPDDFATYYCQQYGSFPTFGGGTKVEIK
binds: [1] | [2] | [3]

B18: ADI-29404 (antibody, V domains shown)
VH: QVQLQQWGAGLLKPSETLSLTCAVYGGSFSGYYWSWIRQPPGKGLEWIGEIDHSGSTNYNPSLKSRVTISVDTSKNQFSLKLSSVTAADTAVYYCARARGPWSFDPWGQGTLVTVSS
VL: DIQMTQSPSTLSASVGDRVTITCRASQSISSWLAWYQQKPGKAPKLLIYKASSLESGVPSRFSGSGSGTEFTLTISSLQPDDFATYYCEQYDSYPTFGGGTKVEIK
notes: also called F04
binds: [1] | [2] | [3]
